# B1: WT Irga6, recombinant (enzyme, mouse, UniProt Q9QZ85 1-413, looked up)
# chain: MGQLFSSPKSDENNDLPSSFTGYFKKFNTGRKIISQEILNLIELRMRKGNIQLTNSAISDALKEIDSSVLNVAVTGETGSGKSSFINTLRGIGNEEEGAAKTGVVEVTMERHPYKHPNIPNVVFWDLPGIGSTNFPPNTYLEKMKFYEYDFFIIISATRFKKNDIDIAKAISMMKKEFYFVRTKVDSDITNEADGKPQTFDKEKVLQDIRLNCVNTFRENGIAEPPIFLLSNKNVCHYDFPVLMDKLISDLPIYKRHNFMVSLPNITDSVIEKKRQFLKQRIWLEGFAADLVNIIPSLTFLLDSDLETLKKSMKFYRTVFGVDETSLQRLARDWEIEVDQVEAMIKSPAVFKPTDEETIQERLSRYIQEFCLANGYLLPKNSFLKEIFYLKYYFLDMVTEDAKTLLKEICLRN
# B2: Irga6-K82A, recombinant (enzyme, mouse, UniProt Q9QZ85 1-413, looked up)
# chain: MGQLFSSPKSDENNDLPSSFTGYFKKFNTGRKIISQEILNLIELRMRKGNIQLTNSAISDALKEIDSSVLNVAVTGETGSGASSFINTLRGIGNEEEGAAKTGVVEVTMERHPYKHPNIPNVVFWDLPGIGSTNFPPNTYLEKMKFYEYDFFIIISATRFKKNDIDIAKAISMMKKEFYFVRTKVDSDITNEADGKPQTFDKEKVLQDIRLNCVNTFRENGIAEPPIFLLSNKNVCHYDFPVLMDKLISDLPIYKRHNFMVSLPNITDSVIEKKRQFLKQRIWLEGFAADLVNIIPSLTFLLDSDLETLKKSMKFYRTVFGVDETSLQRLARDWEIEVDQVEAMIKSPAVFKPTDEETIQERLSRYIQEFCLANGYLLPKNSFLKEIFYLKYYFLDMVTEDAKTLLKEICLRN
# Target: the molecule itself
# Test: conventional and dynamic light scattering
row,Protein,binding result
1,B1,binds
2,B2,binds

# Reference: article PMC2532785 (The EMBO Journal, 2008)
